Molecular target: CD33 (UniProt P20138)
Test: flow cytometry, hybridoma supernatant on EL4-CD33 cells, rat anti-mouse IgG APC

UniProt P20138, sequence (P20138 18-364 limits assumed): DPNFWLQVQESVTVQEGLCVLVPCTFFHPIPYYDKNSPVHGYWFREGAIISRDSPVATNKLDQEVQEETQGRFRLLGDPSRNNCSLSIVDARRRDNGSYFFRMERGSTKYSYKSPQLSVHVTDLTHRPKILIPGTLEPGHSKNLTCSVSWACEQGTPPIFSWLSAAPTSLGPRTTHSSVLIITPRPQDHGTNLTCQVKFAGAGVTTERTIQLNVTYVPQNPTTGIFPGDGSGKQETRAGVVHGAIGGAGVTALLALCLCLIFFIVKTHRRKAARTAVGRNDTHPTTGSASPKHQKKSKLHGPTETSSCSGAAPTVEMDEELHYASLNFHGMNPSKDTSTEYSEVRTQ

CD33/APC+: 52%
B1: 3F5 (antibody, V domains shown)
VH: EVQLQQSGPELVKPGSSVKISCKASGYTFTDYNMDWVKQSHGKSLEWIGTINPNNGGTSYNQKFKGKATLTVDKSSSTAYMELRSLTSEDSAVYYCARKGYGGNYDYFDYWGQGTTLTVSS
VL: DILLTQSPAILSVSPGERVSFSCRASQSIGTSIHWYQQRTNGSPRLLIKYASESISGIPSRFSGSGSGTDFTLSINSVESEDIADYYCQQSNSWPYTFGGGTKLEIK
